Measurements as given in PMC6856053 (Frontiers in Neuroscience, 2019).

Legend:
Test in all cases: pull-down; GST-MIT domain (bait) and myc-6His MIM (prey), 2 nmole each, on 20 ul glutathione sepharose in 1 ml PBS + 0.1% NP-40 + 1 mM DTT, overnight 4 C; Coomassie and anti-myc blot
Conditions in all cases: both partners purified
[1] = molecular target: T1, GST fused to the spastin MIT domain (residues 110-199) L195V (human, UniProt Q9UBP0 110-199, L195V)
T1 construct: spastin, residues 110-199 holding the MIT domain; patient mutation; Cloned into the BamHI-XhoI sites of pGEX-4T2; source: E. coli BL21(DE3)pLysS, purified (GST sepharose, eluted with 10 mM glutathione)
T1 sequence (looked up): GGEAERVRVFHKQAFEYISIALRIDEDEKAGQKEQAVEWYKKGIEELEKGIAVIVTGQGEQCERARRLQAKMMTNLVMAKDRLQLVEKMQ

[2] = molecular target: T2, GST fused to the spastin MIT domain (residues 110-199) N184T (human, UniProt Q9UBP0 110-199, N184T)
T2 construct: spastin, residues 110-199 holding the MIT domain; patient mutation; Cloned into the BamHI-XhoI sites of pGEX-4T2; source: E. coli BL21(DE3)pLysS, purified (GST sepharose, eluted with 10 mM glutathione)
T2 sequence (looked up): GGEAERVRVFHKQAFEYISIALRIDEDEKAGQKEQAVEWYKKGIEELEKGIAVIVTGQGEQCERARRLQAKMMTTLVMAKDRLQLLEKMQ

[3] = molecular target: T3, GST fused to the spastin MIT domain (residues 110-199) E112K (human, UniProt Q9UBP0 110-199, E112K)
T3 construct: spastin, residues 110-199 holding the MIT domain; patient mutation; Cloned into the BamHI-XhoI sites of pGEX-4T2; source: E. coli BL21(DE3)pLysS, purified (GST sepharose, eluted with 10 mM glutathione)
T3 sequence (looked up): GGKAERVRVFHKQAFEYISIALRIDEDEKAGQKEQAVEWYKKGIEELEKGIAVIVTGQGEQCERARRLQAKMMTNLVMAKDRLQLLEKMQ

[4] = molecular target: T4, GST fused to the spastin MIT domain (residues 110-199) R115C (human, UniProt Q9UBP0 110-199, R115C)
T4 construct: spastin, residues 110-199 holding the MIT domain; patient mutation (SPAST c.343C>T); Cloned into the BamHI-XhoI sites of pGEX-4T2; source: E. coli BL21(DE3)pLysS, purified (GST sepharose, eluted with 10 mM glutathione)
T4 sequence (looked up): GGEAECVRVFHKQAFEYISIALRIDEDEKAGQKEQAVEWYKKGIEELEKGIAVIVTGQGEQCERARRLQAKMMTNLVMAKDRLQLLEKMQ

[5] = molecular target: T5, GST fused to the wild-type spastin MIT domain (residues 110-199) (human, UniProt Q9UBP0 110-199)
T5 construct: spastin, residues 110-199 holding the MIT domain; Cloned into the BamHI-XhoI sites of pGEX-4T2; also called WT; source: E. coli BL21(DE3)pLysS, purified (GST sepharose, eluted with 10 mM glutathione)
T5 sequence (looked up): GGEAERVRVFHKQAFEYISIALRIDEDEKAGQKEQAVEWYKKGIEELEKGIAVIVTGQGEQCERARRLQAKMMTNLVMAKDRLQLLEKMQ

[6] = molecular target: T6, GST fused to the spastin MIT domain (residues 110-199) V162I (human, UniProt Q9UBP0 110-199, V162I)
T6 construct: spastin, residues 110-199 holding the MIT domain; benign polymorphism; Cloned into the BamHI-XhoI sites of pGEX-4T2; also called MIT containing the benign polymorphism V162I; source: E. coli BL21(DE3)pLysS, purified (GST sepharose, eluted with 10 mM glutathione)
T6 sequence (looked up): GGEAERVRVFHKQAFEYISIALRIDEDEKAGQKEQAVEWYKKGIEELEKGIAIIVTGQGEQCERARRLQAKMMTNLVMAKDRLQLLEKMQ

binding result [1]: binds
binding result [2]: binds
binding result [3]: binds
binding result [4]: binds
binding result [5]: binds
binding result [6]: binds
B1: single MIM of CHMP1B, residues 174-199, myc- and 6His-tagged (domain or fragment, UniProt Q7LBR1 174-199, looked up)
chain: GSVGTSVASAEQDELSQRLARLRDQV
notes: CHMP1B, residues 174-199 holding the single MIM; Cloned into the BamHI-NotI sites of pGEX-6P-1; also called CHMP1B MIM; CHMP1B (amino acids 174-199); source: E. coli BL21(DE3)pLysS, purified (GST sepharose, GST removed with Prescission protease)
